Results taken from patent US20210155689A1 (SHANGHAI PHARMAEXPLORER, published 2021).

What was measured:
[1] = biological target: T1, human LAG-3 on cells (HEK293-hLAG-3 stable cell line) (human, UniProt P18627 23-525); assay: FACS, HEK293-hLAG-3, antibody 1.6 nM
T1 sequence: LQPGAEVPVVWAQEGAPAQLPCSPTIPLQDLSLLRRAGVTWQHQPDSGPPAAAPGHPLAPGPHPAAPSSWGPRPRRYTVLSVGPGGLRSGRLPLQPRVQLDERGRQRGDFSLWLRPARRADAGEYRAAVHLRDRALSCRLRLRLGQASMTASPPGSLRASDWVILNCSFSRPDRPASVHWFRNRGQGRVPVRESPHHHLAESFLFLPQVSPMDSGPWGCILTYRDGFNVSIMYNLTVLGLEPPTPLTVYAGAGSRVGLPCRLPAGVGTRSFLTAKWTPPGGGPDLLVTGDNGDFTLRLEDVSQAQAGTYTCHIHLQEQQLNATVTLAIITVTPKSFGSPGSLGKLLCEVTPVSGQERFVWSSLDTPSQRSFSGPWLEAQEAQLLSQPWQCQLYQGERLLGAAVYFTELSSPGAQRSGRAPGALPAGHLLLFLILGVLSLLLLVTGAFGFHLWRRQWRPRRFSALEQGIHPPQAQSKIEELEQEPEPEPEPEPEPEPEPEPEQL

[2] = biological target: T1, human LAG-3 on cells (HEK293-hLAG-3 …); assay: FACS, HEK293-hLAG-3, antibody 8 nM
[3] = biological target: T1, human LAG-3 on cells (HEK293-hLAG-3 …); assay: FACS, HEK293-hLAG-3, antibody 40 nM
[4] = biological target: T1, human LAG-3 on cells (HEK293-hLAG-3 …); assay: FACS, HEK293-hLAG-3, antibody 0.32 nM
[5] = biological target: T1, human LAG-3 on cells (HEK293-hLAG-3 …); assay: FACS, HEK293-hLAG-3, antibody 0.064 nM
[6] = biological target: T1, human LAG-3 on cells (HEK293-hLAG-3 …); assay: FACS, HEK293-hLAG-3, antibody 0.013 nM
[7] = biological target: T1, human LAG-3 on cells (HEK293-hLAG-3 …); assay: FACS, HEK293-hLAG-3, antibody 0 nM
[8] = biological target: T1, human LAG-3 on cells (HEK293-hLAG-3 …); assay: FACS, HEK293-hLAG-3, antibody 0.013 nM; remark: listed apart in the source
Description: (§1) A. The binding of antibodies to LAG-3 expressing cells was detected by Flow cytometry (FACS), wherein the method was according to that of Example 5.

[9] = biological target: T1, human LAG-3 on cells (HEK293-hLAG-3 …); assay: FACS, HEK293-hLAG-3, antibody 0.064 nM; remark: listed apart in the source
Description: as §1

[10] = biological target: T1, human LAG-3 on cells (HEK293-hLAG-3 …); assay: FACS, HEK293-hLAG-3, antibody 1.6 nM; remark: listed apart in the source
[11] = biological target: T1, human LAG-3 on cells (HEK293-hLAG-3 …); assay: FACS, HEK293-hLAG-3, antibody 0.32 nM; remark: listed apart in the source
Description: as §1

[12] = biological target: T1, human LAG-3 on cells (HEK293-hLAG-3 …); assay: FACS, HEK293-hLAG-3, antibody 40 nM; remark: listed apart in the source
Description: as §1

[13] = biological target: T2, human LAG-3 ECD (antigen protein of the affinity test) (human, UniProt P18627 23-450); assay: SPR, CM5 chip, antibody captured by anti-human Fc IgG, antigen in flow, 1:1 fit
T2 sequence: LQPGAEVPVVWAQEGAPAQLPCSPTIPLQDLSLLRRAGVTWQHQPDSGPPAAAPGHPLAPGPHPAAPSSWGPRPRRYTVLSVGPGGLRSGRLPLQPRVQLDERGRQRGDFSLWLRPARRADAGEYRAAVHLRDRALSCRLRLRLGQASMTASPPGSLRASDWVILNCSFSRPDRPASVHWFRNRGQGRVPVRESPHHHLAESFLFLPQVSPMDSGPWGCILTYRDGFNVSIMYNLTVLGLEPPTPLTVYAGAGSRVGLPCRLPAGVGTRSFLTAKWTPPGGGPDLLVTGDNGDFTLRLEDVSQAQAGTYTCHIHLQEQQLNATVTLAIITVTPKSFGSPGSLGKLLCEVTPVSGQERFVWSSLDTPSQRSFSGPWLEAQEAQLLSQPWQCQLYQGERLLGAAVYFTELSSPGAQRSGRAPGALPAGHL
Method: First, anti-human Fc IgG was immobilized on the surface of the CM5 chip to 6000-10000 RU by amino coupling method, with FC1 as the reference channel. The coupling process was as follows: a freshly prepared 1:1 mixture of 50 mM NHS and 200 mM EDC was activated for 7 minutes, then injected with 10-50 ug/ml anti-human Fc IgG diluted in 10 mM sodium acetate ph5.0 buffer. The remaining activated sites were blocked with 1M ethanolamine. Then, HBS-EP+ buffer was used to dilute the antibody to be tested to 5 ug/ml (adjustable according to the capture level) and the antibodies were captured on the chip at a flow rate of 10 ul/min to obtain a response value of about 100˜300 RU. Then the antigen protein was diluted to 100 nM (the highest concentration was tentatively 100 nM), and flew through the chip surface at a flow rate of 30 ul/min. If enough signal value was obtained, the antigen-protein was diluted by several concentration gradients, and flew through the chip surface respectively. At the end of each cycle, the chip surface was regenerated with 10 mM Glycine at pH 1.5. The kinetic rate constant needed to be subtracted from the blank control, and the data was fitted with the global fit analysis method 1:1 combination model. The dissociation equilibrium rate constant (KD) was calculated according to the following formula: KD=kd/ka.

[14] = biological target: T1, human LAG-3 on cells (HEK293-hLAG-3 …); assay: FACS, HEK293-hLAG-3, antibody 8 nM; remark: listed apart in the source
Description: as §1

[15] = biological target: T1, human LAG-3 on cells (HEK293-hLAG-3 …); assay: FACS, HEK293-hLAG-3, antibody 0 nM; remark: listed apart in the source

| Binder | Mean fluorescence intensity [1] | Mean fluorescence intensity [2] | Mean fluorescence intensity [3] | Mean fluorescence intensity [4] | Mean fluorescence intensity [5] | Mean fluorescence intensity [6] | Mean fluorescence intensity [7] | Mean fluorescence intensity [8] | Mean fluorescence intensity [9] | Mean fluorescence intensity [10] | Mean fluorescence intensity [11] | Mean fluorescence intensity [12] | Kd [13] | koff [13] | kon [13] | Mean fluorescence intensity [14] | Mean fluorescence intensity [15] |
| --- | --- | --- | --- | --- | --- | --- | --- | --- | --- | --- | --- | --- | --- | --- | --- | --- | --- |
| 556F6B8-6 humanized antibody (antibody, V domains shown) VH: QVQLQESGPGLVKPSETLSLTCTVSGFSIIKYGVHWIRQPPGKGLEWIGVIWRGGITDYNAAFMSRVTISVDTSKNQFSLKLSSVTAADTAVYYCARWDGPLAMDYWGQGTTVTVSS VL: DIVLTQSPSFLSASVGDRVTITCKASQDVGTTVAWYQQKPGKAPKLLIYWASTRHTGVPSRFSGSGSGTEFTLTISSLQPEDFATYYCQQYSSYPYTFGQGTKLEIK | 23 | 39 | 50 | 10 | 6 | 4 | 4 | – | – | – | – | – | – | – | – | – | – |
| 556F6B8-5 humanized antibody (antibody, V domains shown) VH: QVQLQESGPGLVKPSETLSLTCTVSGGSISKYGVHWIRQPPGKGLEWIGVIWRGGITDYNAAFMSRVTISVDTSKNQFSLKLSSVTAADTAVYYCARWDGPLAMDYWGQGTTVTVSS VL: DIVLTQSPSFLSASVGDRVTITCKASQDVGTTVAWYQQKPGKAPKLLIYWASTRHTGVPSRFSGSGSGTEFTLTISSLQPEDFATYYCQQYSSYPYTFGQGTKLEIK | 8 | 16 | 32 | 5 | 4 | 4 | 4 | – | – | – | – | – | – | – | – | – | – |
| 556F6B8-2 humanized antibody (antibody, V domains shown) VH: QVQLQESGPGLVKPSETLSLTCTVSGFSIIKYGVHWIRQPPGKGLEWIGVIWRGGITDYNAAFMSRVTISVDTSKNQFSLKLSSVTAADTAVYYCARWDGPLAMDYWGQGTTVTVSS VL: DIQLTQSPSFLSASVGDRVTITCKASQDVGTTVAWYQQKPGKAPKLLIYWASTRHTGVPSRFSGSGSGTEFTLTISSLQPEDFATYYCQQYSSYPYTFGQGTKLEIK | 23 | 37 | 49 | 10 | 5 | 4 | 4 | – | – | – | – | – | – | – | – | – | – |
| 556F6B8-1 humanized antibody (antibody, V domains shown) VH: QVQLQESGPGLVKPSETLSLTCTVSGGSISKYGVHWIRQPPGKGLEWIGVIWRGGITDYNAAFMSRVTISVDTSKNQFSLKLSSVTAADTAVYYCARWDGPLAMDYWGQGTTVTVSS VL: DIQLTQSPSFLSASVGDRVTITCKASQDVGTTVAWYQQKPGKAPKLLIYWASTRHTGVPSRFSGSGSGTEFTLTISSLQPEDFATYYCQQYSSYPYTFGQGTKLEIK | 9 | 19 | 33 | 5 | 4 | 4 | 4 | – | – | – | – | – | – | – | – | – | – |
| 556F6B8-4 humanized antibody (antibody, V domains shown) VH: RVQLQESGPGLVKPSETLSLTCTVSGFSLIKYGVHWIRQPPGKGLEWIGVIWRGGITDYNAAFMSRVTISKDTSKSQVSLKLSSVTAADTAVYYCAKWDGPLAMDYWGQGTTVTVSS VL: DIQLTQSPSFLSASVGDRVTITCKASQDVGTTVAWYQQKPGKAPKLLIYWASTRHTGVPSRFSGSGSGTEFTLTISSLQPEDFATYYCQQYSSYPYTFGQGTKLEIK | 62 | 77 | 82 | 32 | 14 | 7 | 4 | – | – | – | – | – | – | – | – | – | – |
| 405B8H3-1 humanized antibody (antibody, V domains shown) VH: QVQLVQSGAEVKKPGASVKVSCKASGYTFTDYEMHWVRQAPGQGLEWMGATDPETGNSAYNQKFKGRVTMTRDTSTSTVYMELSSLRSEDTAVYYCISTGWNDWGQGTTVTVSS VL: DIQMTQSPSSLSASVGDRVTITCKASQDINSYLSWFQQKPGKAPKSLIYRADRLLDGVPSRFSGSGSGTDFTLTISSLQPEDFATYYCLQYDEFPYTFGQGTKLEIK | – | – | – | – | – | – | – | 11 | 26 | 178 | 73 | 257 | 2.54 nM | 0.000254 s⁻¹ | 100000 M⁻¹ s⁻¹ | 244 | 4 |
| 405B8H3-6 humanized antibody (antibody, V domains shown) VH: QVQLVQSGAEVKKPGASVKVSCKASGYTFTDYEMHWVRQAPGQGLEWMGATDPETGNSAYNQKFKGRVTMTADKSTSTVYMELSSLRSEDTAVYYCISTGWNDWGQGTTVTVSS VL: DIQMTQSPSSLSASVGDRVTITCKASQDINSYLSWFQQKPGKAPKSLIYRADRLLDGVPSRFSGSGSGQDYTLTISSLQPEDFATYYCLQYDEFPYTFGQGTKLEIK | – | – | – | – | – | – | – | 9 | 21 | 179 | 66 | 254 | 2.04 nM | 0.000193 s⁻¹ | 94900 M⁻¹ s⁻¹ | 242 | 4 |
| 405B8H3-7 humanized antibody (antibody, V domains shown) VH: QVQLVQSGAEVKKPGASVKVSCKASGYTFTDYEMHWVRQAPGQGLEWIGATDPETGNSAYNQKFKGRATMTADKSTSTAYMELSSLRSEDTAVYYCISTGWNDWGQGTTVTVSS VL: DIQMTQSPSSLSASVGDRVTITCKASQDINSYLSWFQQKPGKAPKSLIYRADRLLDGVPSRFSGSGSGQDYTLTISSLQPEDFATYYCLQYDEFPYTFGQGTKLEIK | – | – | – | – | – | – | – | 9 | 21 | 163 | 62 | 252 | 3.28 nM | 0.000316 s⁻¹ | 96400 M⁻¹ s⁻¹ | 230 | 4 |
